Source: the supplement of paper PMC5998384

Assays:
HeLa Kyoto [1] = experiment: solubility in G1/S (NP-40 vs SDS abundance) (log2 ratio); higher = more soluble; conditions: cell cycle stage: G1/S
HeLa Kyoto [2] = experiment: solubility change mitosis vs G1/S (difference of NP-40 vs SDS log2 ratios) (log2 ratio difference); higher = more soluble in mitosis
HeLa Kyoto [3] = experiment: melting temperature (median over replicates), in situ; higher = more thermally stable
HeLa Kyoto [4] = experiment: thermal stability score vs G1/S (z-score of summed log2 fold changes over temperatures); higher = more thermally stable than in G1/S
[5] = cell cycle stage: early G1 (4.5 h after nocodazole release)
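Throughout, for melting temperature (median over replicates), in situ: HeLa Kyoto cells synchronized by double thymidine or nocodazole block, proteins quantified by TMT10plex mass spectrometry, three independent biological replicates.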
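Throughout, for solubility change mitosis vs G1/S (difference of NP-40 vs SDS log2 ratios): synchronized HeLa Kyoto cells (double thymidine block for G1/S, nocodazole release for mitosis), protein amounts in NP-40 versus SDS lysates quantified by mass spectrometry, three biological replicates.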
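Throughout, for solubility in G1/S (NP-40 vs SDS abundance): HeLa Kyoto cells arrested at G1/S by double thymidine block, proteins quantified by TMT10plex mass spectrometry in mild NP-40 versus SDS extracts, three biological replicates.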
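Throughout, for thermal stability score vs G1/S (z-score of summed log2 fold changes over temperatures): synchronized HeLa Kyoto cells, proteins quantified by TMT10plex mass spectrometry, three biological replicates, mitosis taken 0.5 h after nocodazole release, G1/S directly after double thymidine block.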

Sequence	solubility in G1/S (log2) (HeLa Kyoto [1])	solubility change mitosis (log2) (HeLa Kyoto [2])	melting temperature (HeLa Kyoto [3]; cell cycle stage: G1/S) [°C]	melting temperature (HeLa Kyoto [3]; cell cycle stage: mitosis) [°C]	thermal stability score (HeLa Kyoto [4]; [5])	thermal stability score (HeLa Kyoto [4]; cell cycle stage: mitosis)
MSAQAQMRALLDQLMGTARDGDETRQRVKFTDDRVCKSHLLDCCPHDILAGTRMDLGECTKIHDLALRADYEIASKERDLFFELDAMDHLESFIAECDRRTELAKKRLAETQEEISAEVSAKAEKVHELNEEIGKLLAKAEQLGAEGNVDESQKILMEVEKVRAKKKEAEEEYRNSMPASSFQQQKLRVCEVCSAYLGLHDNDRRLADHFGGKLHLGFIQIREKLDQLRKTVAEKQEKRNQDRLRRREEREREERLSRRSGSRTRDRRRSRSRDRRRRRSRSTSRERRKLSRSRSRDRHRRHRSRSRSHSRGHRRASRDRSAKYKFSRERASREESWESGRSERGPPDWRLESSNGKMASRRSEEKEAGEI [LUC7L]	-0.598	0.353	50.1	51.4	1.93	1.87
MPSASASRKSQEKPREIMDAAEDYAKERYGISSMIQSQEKPDRVLVRVRDLTIQKADEVVWVRARVHTSRAKGKQCFLVLRQQQFNVQALVAVGDHASKQMVKFAANINKESIVDVEGVVRKVNQKIGSCTQQDVELHVQKIYVISLAEPRLPLQLDDAVRPEAEGEEEGRATVNQDTRLDNRVIDLRTSTSQAVFRLQSGICHLFRETLINKGFVEIQTPKIISAASEGGANVFTVSYFKNNAYLAQSPQLYKQMCICADFEKVFSIGPVFRAEDSNTHRHLTEFVGLDIEMAFNYHYHEVMEEIADTMVQIFKGLQERFQTEIQTVNKQFPCEPFKFLEPTLRLEYCEALAMLREAGVEMGDEDDLSTPNEKLLGHLVKEKYDTDFYILDKYPLAVRPFYTMPDPRNPKQSNSYDMFMRGEEILSGAQRIHDPQLLTERALHHGIDLEKIKAYIDSFRFGAPPHAGGGIGLERVTMLFLGLHNVRQTSMFPRDPKRLTP [DARS]	-0.115	-0.127	49.4	49.2	0.0385	4.02
MEFAELIKTPRVDNVVLHRPFYPAVEGTLCLTGHHLILSSRQDNTEELWLLHSNIDAIDKRFVGSLGTIIIKCKDFRIIQLDIPGMEECLNIASSIEALSTLDSITLMYPFFYRPMFEVIEDGWHSFLPEQEFELYSSATSEWRLSYVNKEFAVCPSYPPIVTVPKSIDDEALRKVATFRHGGRFPVLSYYHKKNGMVIMRSGQPLTGTNGRRCKEDEKLINATLRAGKRGYIIDTRSLNVAQQTRAKGGGFEQEAHYPQWRRIHKSIERYHILQESLIKLVEACNDQTHNMDRWLSKLEASNWLTHIKEILTTACLAAQCIDREGASILIHGTEGTDSTLQVTSLAQIILEPRSRTIRGFEALIEREWLQAGHPFQQRCAQSAYCNTKQKWEAPVFLLFLDCVWQILRQFPCSFEFNENFLIMLFEHAYASQFGTFLGNNESERCKLKLQQKTMSLWSWVNQPSELSKFTNPLFEANNLVIWPSVAPQSLPLWEGIFLRWNRSSKYLDEAYEEMVNIIEYNKELQAKVNILRRQLAELETEDGMQESP [MTMR9]	-0.116	-0.125	50.2	50.6	-0.213	-0.626
MDDFERRRELRRQKREEMRLEAERIAYQRNDDDEEEAARERRRRARQERLRQKQEEESLGQVTDQVEVNAQNSVPDEEAKTTTTNTQVEGDDEAAFLERLARREERRQKRLQEALERQKEFDPTITDASLSLPSRRMQNDTAENETTEKEEKSESRQERYEIEETETVTKSYQKNDWRDAEENKKEDKEKEEEEEEKPKRGSIGENQVEVMVEEKTTESQEETVVMSLKNGQISSEEPKQEEEREQGSDEISHHEKMEEEDKERAEAERARLEAEERERIKAEQDKKIADERARIEAEEKAAAQERERREAEERERMREEEKRAAEERQRIKEEEKRAAEERQRIKEEEKRAAEERQRIKEEEKRAAEERQRARAEEEEKAKVEEQKRNKQLEEKKHAMQETKIKGEKVEQKIEGKWVNEKKAQEDKLQTAVLKKQGEEKGTKVQAKREKLQEDKPTFKKEEIKDEKIKKDKEPKEEVKSFMDRKKGFTEVKSQNGEFMTHKLKHTENTFSRPGGRASVDTKEAEGAPQVEAGKRLEELRRRRGETESEEFEKLKQKQQEAALELEELKKKREERRKVLEEEEQRRKQEEADRKLREEEEKRRLKEEIERRRAEAAEKRQKMPEDGLSDDKKPFKCFTPKGSSLKIEERAEFLNKSVQKSSGVKSTHQAAIVSKIDSRLEQYTSAIEGTKSAKPTKPAASDLPVPAEGVRNIKSMWEKGNVFSSPTAAGTPNKETAGLKVGVSSRINEWLTKTPDGNKSPAPKPSDLRPGDVSSKRNLWEKQSVDKVTSPTKV [CALD1]	0.0624	0.119	57.1	57.1	0.295	-2.2
